From patent publication US12012599B2, “Compositions and methods for modulating left-right differentiation factor (LEFTY) and bone morphogenic factor (BMP)” (CZ Biohub SF LLC, priority 2018, dated 2024) come the findings set out here.

The test system of the experiment is mammary epithelial cells. Put plainly: 3D organotypic mammary organoid formation. Type of experiment: cell-based, mouse. Conditions: for organoid formation (frequency, number of colonies): Wnt-dependent organoid culture. How it is done:
FIGS. 8A-8D. Autocrine and paracrine effects of NODAL and LEFTY1 in mammary epithelial cell populations. […] The sorted cells were grown in the 3D organotypic assays to test their organoid formation potential in the presence of NODAL. […] Each dot represents an organoid (n=3). […] Data are represented as median±S.D. Statistical analysis, One-way ANOVA with Dunnet's adjustment, **p<0.01.
FIGS. 9A-9F. Opposing effects of LEFTY1 and BMP7 in mammary organoid formation. […] Data are represented as median±S.D. Statistical analysis, one-way ANOVA with Dunnet's adjustment, *p<0.05; **p<0.01; ***p<0.001.
Since LEFTY1 and BMP7 were able to affect the branching of mammary glands, we hypothesized that the LEFTY1/BMP7 signaling axis may affect the proliferation of mammary epithelial cells. We exposed freshly dissociated mammary epithelial cells to NODAL, LEFTY1, BMP7 and CRIPTO-1 in a modified Wnt-dependent in vitro organoid culture system that was optimized for progenitor cell propagation (Zeng & Nusse, Cell Stem Cell 6, 568-577 (2010) and Jamieson et al., Development 144, 1065-1071 (2017)). In Xenopus, Wnt signaling controls the expression of Nodal and Cripto-1 during gastrulation. Consistent with the evolutionary conservation of the interaction between the Nodal and Wnt pathways (Branford et al., Curr Biol 12, 2136-2141 (2002)), NODAL had no effect on organoid formation in our Wnt-driven culture system (FIG. 8A).
In organoid cultures, the basal cells give rise to mixed phenotype colonies of luminal and basal cells. To prevent the formation of LEFTY1-expressing cells during organoid formation, genetic knockdown of LEFTY1 was done. To knock-down mouse LEFTY1, pSICO-R lentiviral vector was used (Ventura, PNAS, 2004). Different shRNAs were designed and cloned into pSICO-R. The target sequences of the shRNAs cloned were GGACAAGGCTGATGTGGAA (SEQ ID NO: 14) and GCAGGTTCCTGGTGTCAGA (SEQ ID NO: 15). The efficiency of knock-down was tested by transfecting HEK293T cells with pSICO-R-shLEFTY1 constructs with pEGFP-C3-LEFTY1 at 1:4 and 1:20 ratio. Decrease on GFP signal was used to calculate the percentage of inhibition of the shLEFTY sequences. […] (p<0.001 and p<0.01, respectively) (FIGS. 8C-8D and FIGS. 9E-9F).

B1: CRIPTO-1: soluble EGF-CFC Nodal co-receptor (protein, UniProt P13385 31-150, looked up)
Protein Cripto: LGHQEFARPSRGYLAFRDDSIWPQEEPAIRPRSSQRVPPMGIQHSKELNRTCCLNGGTCMLGSFCACPPSFYGRNCEHDVRKENCGSVPHDTWLPKKCSLCKCWHGQLRCFPQAFLPGCD
B1: the “organoid formation (frequency, number of colonies)” value was “did not have a significant effect”. The “effect on LEFTY1's increase of organoid formation” value (in combination with LEFTY1) is given as “enhanced”.

B2: NODAL: TGF-β family ligand that induces phosphorylation of SMAD2/3 (protein, UniProt Q96S42 238-347, looked up)
Nodal homolog: HHLPDRSQLCRKVKFQVDFNLIGWGSWIIYPKQYNAYRCEGECPNPVGEEFHPTNHAYIQSLLKRYQPHRVPSTCCAPVKTKPLSMLYVDNGRVLLDHHKDMIVEECGCL
B2: the “organoid formation (frequency, number of colonies)” value was “no effect”.
